Test results taken from patent US20240417437A1, “Linker Polypeptides” (Trutino Biosciences Inc., priority 2021, published 2024).
Substitutions are numbered along the chain they refer to. Numbers in names are those of the source. Each block holds one molecule with its values, some of them ahead of it.

Key:
[1] = system: B16F10 melanoma cells; test: B16F10 melanoma tumor growth inhibition study; type: in vivo; details: 20 mg/kg IV Q3D, 5 doses, B16F10 in C57BL/6 mice
Method: C57BL/6 mice were subcutaneously inoculated with B16F10 melanoma cells and when the average tumor volume reached on average 70-90 mm^3, animals were randomized into 6 groups based on tumor volumes (n=8 mice per treatment group). Mice were dosed intravenously every 3 days (Q3D) for a total of 5 doses according to Table 7.
Tumor volumes were measured twice a week for the duration of the study. […] On day 14, animals were sacrificed, and tissues and blood (processed to serum) were collected 24 hours post final dose (dose #5) and stored at −80° C. until further testing.

[2] = system: B16F10 melanoma cells; test: Tumor lysate levels of full-length fusion protein (ELISA), IL-2 and IFN-γ (Luminex), B16F10 study; type: in vivo, C57BL/6 mice; details: tumor lysate 24 hours after last dose
Method: An ELISA assay was developed to detect and quantify prodrug fusion proteins comprising IL-2 and IL-2Ra moieties. Wells of a 96-well plate were coated overnight with 100 μL of a rat anti-mouse IL-2 monoclonal antibody (JES6-1A12; ThermoFisher) at […] in PBS. After washing, wells are blocked with TBS/0.05% Tween 20/1% BSA, then fusion proteins and/or unknown biological samples were added for 1 hour at room temperature. After washing, an anti-mouse IL-2Ra biotin-labelled detection antibody (BAF2438, R&D systems) was added and binding was detected using Ultra Strepavidin HRP (ThermoFisher). The ELISA plate was developed by adding the chromogenic tetramethylbenzidine substrate (Ultra TMB, ThermoFisher). The reaction was stopped by addition of 0.5 M H2SO4, and the absorbance was read at 450-650 nm.
The levels of full-length IL-2-IL-2Ra fusion proteins, IL-2, and IFN-7 were quantified in tumor samples collected during a pre-clinical efficacy study comparing a panel of retention linker IL-2 fusion drugs (see Example 10).
Tumors (n=3 per group) were collected 24 hours after the last dose injection, flash frozen, and stored at −80° C. until further processing. Tumor lysates were generated using tissue extraction reagent (ThermoFisher) supplemented with protease and phosphatase inhibitors. Standard techniques and protein concentrations were determined using the BCA assay (Pierce). […]

[3] = system: collagen; test: Collagen-agarose pulldown assay with IL-2 immunoblot; type: binding; details: for binding to collagen-agarose beads (pulldown): 18-22 hours at 4° C.
Method: To test binding to collagen, a pulldown assay using agarose cross-linked to collagen (Sigma) was performed. IL-2 fusion proteins were incubated with collagen-agarose or control agarose beads for 18-22 hours at 4° C. with gentle rotation in 1% BSA/PBS-0.05% Tween 20. After washing, proteins bound to the beads were eluted by resuspending beads in SDS sample buffer (Life Technologies). Bound proteins were then separated by SDS-PAGE on 4-12% BisTris gradient gel, followed by immunoblotting with goat anti-mouse IL-2 polyclonal antibody (AF-402-NA; R&D systems). Donkey anti-goat HRP-conjugated antibody was used for detection (Jackson Immuno Research, West Grove, PA), and the blot was developed using the SuperSignal West Femto Maximum sensitivity detection reagent (ThermoFisher) following the manufacturer's recommendations.

[4] = Link_TGS6; cited from earlier work
[5] = system: EMT6 breast cancer syngeneic model; test: Real-time whole-body imaging of Dylight 650 labelled IL-2 fusion proteins in tumors; type: in vivo; details: 8 mg/kg IV once, each time-point over 96 hours, EMT6 tumor-bearing BALB/c mice
Method: The levels of IL-2 fusion proteins present in tumors in vivo were assessed by utilizing fluorescently labelled proteins and real-time whole-body imaging. Non-cleavable Construct GGG and Construct DD were conjugated to Dylight 650 probe according to the manufacturer's protocol (Dylight 650 Antibody labeling kit, ThermoFisher). […] BALB/c mice were subcutaneously inoculated with EMT6 breast cancer syngeneic model, and when the average tumor volume reached 240 mm^3, animals were randomized into 3 groups based on tumor volumes (n=2 mice per treatment group).
Following administration of a single dose of the labeled IL-2 fusion proteins to tumor-bearing mice, fluorescent images (excitation 640/emission 680 consistent with Dylight 650 probe ex/em spectra) were captured over 96 hours on an IVIS system (PerkinElmer, IVIS Lumina Series III) and are shown in FIG. 5A. The fluorescence intensity in tumor areas was quantified across the groups, average background tumor fluorescence (group 1) was subtracted from group 2 and 3 values at each time-point, and data were normalized to the initial fluorescence intensity of same amount of each labeled protein. […] This signifies next generation retention linker Construct DD accumulated and was retained in tumors at 2-fold higher levels compared to IL-2 fusion protein Construct GGG, lacking any targeting sequence.

B1: Construct III: mIL2-VRIQRKKEKMKET-MMPcs1-GGSKLWVLPKGS-mIL2Ra-muIgG1Fc; hep/col IV (protein)
chain: APTSSSTSSSTAEAQQQQQQQQQQQQHLEQLLMDLQELLSRMENYRNLKLPRMLTFKFYLPKQATELKDLQCLEDELGPLRHVLDLTQSKSFQLEDAENFISNIRVTVVKLKGSDNTFECQFDDESATVVDFLRRWIAFCQSIISTSPQVRIQRKKEKMKETGPLGVRGGGSKLWVLPKGSELCLYDPPEVPNATFKALSYKNGTILNCECKRGFRRLKELVYMRCLGNSWSSNCQCTSNSHDKSRKQVTAQLEHQKEQQTTTDMQKPTQSMHQENLTGHCREPPPWKHEDSKRIYHFVEGQSVHYECIPGYKALQRGPAISICKMKCGKTGWTQPQLTCVDEREHHRFLASEESQGSRNSSPESETSCPITTTDFPQPTETTAMTETFVLTMEYKGCKPCICTVPEVSSVFIFPPKPKDVLTITLTPKVTCVVVDISKDDPEVQFSWFVDDVEVHTAQTQPREEQFNSTFRSVSELPIMHQDWLNGKEFKCRVNSAAFPAPIEKTISKTKGRPKAPQVYTIPPPKEQMAKDKVSLTCMITDFFPEDITVEWQWNGQPAENYKNTQPIMDTDGSYFVYSKLNVQKSNWEAGNTFTCSVLHEGLHNHHTEKSLSHSPGK
modifications: Synthetic: Construct III
notes: mIL2-…-MMPcs1-…-mIL2Ra-muIgG1Fc; hep/col IV
tumor growth inhibition (TGI) [1]: 83.5% | levels of IFN-7 in tumors [2]: enhanced | IL-2 intratumoral levels ([2]; compared to other arms): highest

binding to collagen-agarose beads (pulldown) [3]: specifically bound
B2: Construct GG: mIL2-SGG-KLWVLPK-MMPcs1-2x(G4S)-mIL2Ra(1-215)-muIgG1Fc; collagen IV (protein)
chain: APTSSSTSSSTAEAQQQQQQQQQQQQHLEQLLMDLQELLSRMENYRNLKLPRMLTFKFYLPKQATELKDLQCLEDELGPLRHVLDLTQSKSFQLEDAENFISNIRVTVVKLKGSDNTFECQFDDESATVVDFLRRWIAFCQSIISTSPQSGGKLWVLPKGPLGVRGGGGGSGGGGSELCLYDPPEVPNATFKALSYKNGTILNCECKRGFRRLKELVYMRCLGNSWSSNCQCTSNSHDKSRKQVTAQLEHQKEQQTTTDMQKPTQSMHQENLTGHCREPPPWKHEDSKRIYHFVEGQSVHYECIPGYKALQRGPAISICKMKCGKTGWTQPQLTCVDEREHHRFLASEESQGSRNSSPESETSCPITTTDFPQPTETTAMTETFVLTMEYKGCKPCICTVPEVSSVFIFPPKPKDVLTITLTPKVTCVVVDISKDDPEVQFSWFVDDVEVHTAQTQPREEQFNSTFRSVSELPIMHQDWLNGKEFKCRVNSAAFPAPIEKTISKTKGRPKAPQVYTIPPPKEQMAKDKVSLTCMITDFFPEDITVEWQWNGQPAENYKNTQPIMDTDGSYFVYSKLNVQKSNWEAGNTFTCSVLHEGLHNHHTEKSLSHSPGK
modifications: Synthetic: Construct GG
notes: mIL2-SGG-KLWVLPK-MMPcs1-2x(G4S)-mIL2Ra(1-215)-muIgG1Fc; collagen IV
fraction bound, fold higher than the fraction of bound Construct B ([3]; blot quantitation): 2.5 fold

binding to collagen-agarose beads (pulldown) [3]: specifically bound
B3: Construct II: mIL2-LHERHLNNN-MMPcs1-2x(G4S)-mIL2Ra(1-215)-muIgG1Fc; collagen I (protein)
chain: B2 chain with G151L, G152H, K153E, L154R, W155H, V156L, L157N, P158N, K159N
modifications: Synthetic: Construct II
notes: mIL2-…-MMPcs1-2x(G4S)-mIL2Ra(1-215)-muIgG1Fc; collagen I

B4: 641 (protein)
chain: GVYHREARSGKYKLTYAEAKAVCEFEGGHLATYKGLEAARKIGFHVCAAGWMAKGRVGYPIVKPGPPNCGFGKTGIIDYGIRLNRSERWDAYCYNPHA
modifications: Synthetic: hyaluronic acid; pH dependent (Link_TGS6)
Note 2: pH dependence of binding to hyaluronic acid [4]: binds better at lower pH

B5: Construct DD: mIL2-2x(GHHPH)-MMPscr-2x(G4S)-mIL2Ra(1-215)-muIgG1Fc; pH heparin (protein)
chain: APTSSSTSSSTAEAQQQQQQQQQQQQHLEQLLMDLQELLSRMENYRNLKLPRMLTFKFYLPKQATELKDLQCLEDELGPLRHVLDLTQSKSFQLEDAENFISNIRVTVVKLKGSDNTFECQFDDESATVVDFLRRWIAFCQSIISTSPQGHHPHGHHPHGVRLGPGGGGGSGGGGSELCLYDPPEVPNATFKALSYKNGTILNCECKRGFRRLKELVYMRCLGNSWSSNCQCTSNSHDKSRKQVTAQLEHQKEQQTTTDMQKPTQSMHQENLTGHCREPPPWKHEDSKRIYHFVEGQSVHYECIPGYKALQRGPAISICKMKCGKTGWTQPQLTCVDEREHHRFLASEESQGSRNSSPESETSCPITTTDFPQPTETTAMTETFVLTMEYKGCKPCICTVPEVSSVFIFPPKPKDVLTITLTPKVTCVVVDISKDDPEVQFSWFVDDVEVHTAQTQPREEQFNSTFRSVSELPIMHQDWLNGKEFKCRVNSAAFPAPIEKTISKTKGRPKAPQVYTIPPPKEQMAKDKVSLTCMITDFFPEDITVEWQWNGQPAENYKNTQPIMDTDGSYFVYSKLNVQKSNWEAGNTFTCSVLHEGLHNHHTEKSLSHSPGK
modifications: Synthetic: Construct DD
notes: mIL2-2x(GHHPH)-MMPscr-2x(G4S)-mIL2Ra(1-215)-muIgG1Fc; pH heparin
tumor-associated fluorescence / level retained in tumors, fold higher compared to Construct GGG [5]: roughly 2 fold
